Experimental data from IntAct's records for PubMed 35512704.

B1: Speckle-type POZ protein (Homo sapiens), O43791 (parent)
chain: MSRVPSPPPPAEMSSGPVAESWCYTQIKVVKFSYMWTINNFSFCREEMGEVIKSSTFSSGANDKLKWCLRVNPKGLDEESKDYLSLYLLLVSCPKSEVRAKFKFSILNAKGEETKAMESQRAYRFVQGKDWGFKKFIRRDFLLDEANGLLPDDKLTLFCEVSVVQDSVNISGQNTMNMVKVPECRLADELGGLWENSRFTDCCLCVAGQEFQAHKAILAARSPVFSAMFEHEMEESKKNRVEINDVEPEVFKEMMCFIYTGKAPNLDKMADDLLAAADKYALERLKVMCEDALCSNLSVENAAEILILADLHSADQLKTQAVDFINYHASDVLETSGWKSMVVSHPHLVAEAYRSLASAQCPFLGPPRKRLKQS

Variants of: B1
Settings: with brd4_human BRD4, O60885

Variant	effect of a mutation on the interaction
F133L	disrupting interaction strength

Variants of: B1
Settings: with ncoa3_human NCOA3, Q9Y6Q9

Variant	effect of a mutation on the interaction
F133L	disrupting interaction strength

Variants of: B1
Settings: with jun_human JUN

Variant	effect of a mutation on the interaction
F133L	with no effect

Variants of: B1
Settings: with akt1_human AKT1, P31749

Variant	effect of a mutation on the interaction
F133L	with no effect

Variants of: B1
Settings: with alk_human ALK

Variant	effect of a mutation on the interaction
F133L	with no effect

Variants of: B1
Settings: with aph1a_human APH1A

Variant	effect of a mutation on the interaction
F133L	with no effect

Variants of: B1
Settings: with arnt_human ARNT

Variant	effect of a mutation on the interaction
F133L	with no effect

Variants of: B1
Settings: with arc1a_human ARPC1A

Variant	effect of a mutation on the interaction
F133L	with no effect

Variants of: B1
Settings: with arrb2_human ARRB2, P32121

Variant	effect of a mutation on the interaction
F133L	with no effect

Variants of: B1
Settings: with bakor_human ATG14, Q6ZNE5

Variant	effect of a mutation on the interaction
F133L	with no effect

Variants of: B1
Settings: with atm_human ATM

Variant	effect of a mutation on the interaction
F133L	with no effect

Variants of: B1
Settings: with atpb_human ATP5F1B

Variant	effect of a mutation on the interaction
F133L	with no effect

Variants of: B1
Settings: with aurkb_human AURKB

Variant	effect of a mutation on the interaction
F133L	with no effect

Variants of: B1
Settings: with axin2_human AXIN2, Q9Y2T1

Variant	effect of a mutation on the interaction
F133L	with no effect

Variants of: B1
Settings: with za2g_human AZGP1, P25311

Variant	effect of a mutation on the interaction
F133L	with no effect

Variants of: B1
Settings: with bap1_human BAP1, Q92560

Variant	effect of a mutation on the interaction
F133L	with no effect

Variants of: B1
Settings: with bcor_human BCOR

Variant	effect of a mutation on the interaction
F133L	with no effect

Variants of: B1
Settings: with brd4_human BRD4, O60885
Remark: another data set of the same source

Variant	effect of a mutation on the interaction
F133L	with no effect

Variants of: B1
Settings: with baba2_human BABAM2, Q9NXR7

Variant	effect of a mutation on the interaction
F133L	with no effect

Variants of: B1
Settings: with btg1_human BTG1, P62324

Variant	effect of a mutation on the interaction
F133L	with no effect

Variants of: B1
Settings: with btk_human BTK

Variant	effect of a mutation on the interaction
F133L	with no effect

Variants of: B1
Settings: with cblb_human CBLB

Variant	effect of a mutation on the interaction
F133L	with no effect

Variants of: B1
Settings: with ccnd1_human CCND1, P24385

Variant	effect of a mutation on the interaction
F133L	with no effect

Variants of: B1
Settings: with ccnd2_human CCND2, P30279

Variant	effect of a mutation on the interaction
F133L	with no effect

Variants of: B1
Settings: with ccnd3_human CCND3, P30281

Variant	effect of a mutation on the interaction
F133L	with no effect

Variants of: B1
Settings: with cd44_human CD44, P16070

Variant	effect of a mutation on the interaction
F133L	with no effect

Variants of: B1
Settings: with cd79b_human CD79B

Variant	effect of a mutation on the interaction
F133L	with no effect

Variants of: B1
Settings: with cdc27_human CDC27, P30260

Variant	effect of a mutation on the interaction
F133L	with no effect

Variants of: B1
Settings: with cdc73_human CDC73, Q6P1J9

Variant	effect of a mutation on the interaction
F133L	with no effect

Variants of: B1
Settings: with cdk4_human CDK4, P11802

Variant	effect of a mutation on the interaction
F133L	with no effect

Variants of: B1
Settings: with cdk6_human CDK6, Q00534

Variant	effect of a mutation on the interaction
F133L	with no effect

Variants of: B1
Settings: with cdn2c_human CDKN2C

Variant	effect of a mutation on the interaction
F133L	with no effect

Variants of: B1
Settings: with chd1l_human CHD1L

Variant	effect of a mutation on the interaction
F133L	with no effect

Variants of: B1
Settings: with chd2_human CHD2, O14647

Variant	effect of a mutation on the interaction
F133L	with no effect

Variants of: B1
Settings: with chk2_human CHEK2, O96017

Variant	effect of a mutation on the interaction
F133L	with no effect

Variants of: B1
Settings: with ch3l1_human CHI3L1, P36222

Variant	effect of a mutation on the interaction
F133L	with no effect

Variants of: B1
Settings: with csf1r_human CSF1R

Variant	effect of a mutation on the interaction
F133L	with no effect

Variants of: B1
Settings: with ctla4_human CTLA4, P16410

Variant	effect of a mutation on the interaction
F133L	with no effect

Variants of: B1
Settings: with cul3_human CUL3, Q13618

Variant	effect of a mutation on the interaction
F133L	with no effect

Variants of: B1
Settings: with daxx_human DAXX

Variant	effect of a mutation on the interaction
F133L	with no effect

Variants of: B1
Settings: with ddx5_human DDX5, P17844

Variant	effect of a mutation on the interaction
F133L	with no effect

Variants of: B1
Settings: with dll3_human DLL3, Q9NYJ7

Variant	effect of a mutation on the interaction
F133L	with no effect

Variants of: B1
Settings: with duox2_human DUOX2, Q9NRD8

Variant	effect of a mutation on the interaction
F133L	with no effect

Variants of: B1
Settings: with e2f2_human E2F2, Q14209

Variant	effect of a mutation on the interaction
F133L	with no effect

Variants of: B1
Settings: with e2f3_human E2F3, O00716

Variant	effect of a mutation on the interaction
F133L	with no effect

Variants of: B1
Settings: with e2f5_human E2F5, Q15329

Variant	effect of a mutation on the interaction
F133L	with no effect

Variants of: B1
Settings: with e2f6_human E2F6, O75461

Variant	effect of a mutation on the interaction
F133L	with no effect

Variants of: B1
Settings: with e2f8_human E2F8, A0AVK6

Variant	effect of a mutation on the interaction
F133L	with no effect

Variants of: B1
Settings: with if4e_human EIF4E

Variant	effect of a mutation on the interaction
F133L	with no effect

Variants of: B1
Settings: with epha7_human EPHA7, Q15375

Variant	effect of a mutation on the interaction
F133L	with no effect

Variants of: B1
Settings: with ephb1_human EPHB1, P54762

Variant	effect of a mutation on the interaction
F133L	with no effect

Variants of: B1
Settings: with erbb3_human ERBB3, P21860

Variant	effect of a mutation on the interaction
F133L	with no effect

Variants of: B1
Settings: with erbb4_human ERBB4, Q15303

Variant	effect of a mutation on the interaction
F133L	with no effect

Variants of: B1
Settings: with esr1_human ESR1, P03372

Variant	effect of a mutation on the interaction
F133L	with no effect

Variants of: B1
Settings: with etv1_human ETV1, P50549

Variant	effect of a mutation on the interaction
F133L	with no effect

Variants of: B1
Settings: with ezh1_human EZH1, Q92800

Variant	effect of a mutation on the interaction
F133L	with no effect

Variants of: B1
Settings: with ezh2_human EZH2, Q15910

Variant	effect of a mutation on the interaction
F133L	with no effect

Variants of: B1
Settings: with facd2_human FANCD2, Q9BXW9

Variant	effect of a mutation on the interaction
F133L	with no effect

Variants of: B1
Settings: with fgf19_human FGF19, O95750

Variant	effect of a mutation on the interaction
F133L	with no effect

Variants of: B1
Settings: with fgfp1_human FGFBP1, Q14512

Variant	effect of a mutation on the interaction
F133L	with no effect

Variants of: B1
Settings: with fgfr4_human FGFR4, P22455

Variant	effect of a mutation on the interaction
F133L	with no effect

Variants of: B1
Settings: with fumh_human FH

Variant	effect of a mutation on the interaction
F133L	with no effect

Variants of: B1
Settings: with fzr1_human FZR1, Q9UM11

Variant	effect of a mutation on the interaction
F133L	with no effect

Variants of: B1
Settings: with gbra6_human GABRA6, Q16445

Variant	effect of a mutation on the interaction
F133L	with no effect

Variants of: B1
Settings: with gata1_human GATA1, P15976

Variant	effect of a mutation on the interaction
F133L	with no effect

Variants of: B1
Settings: with p66b_human GATAD2B

Variant	effect of a mutation on the interaction
F133L	with no effect

Variants of: B1
Settings: with gna11_human GNA11, P29992

Variant	effect of a mutation on the interaction
F133L	with no effect

Variants of: B1
Settings: with gna13_human GNA13, Q14344

Variant	effect of a mutation on the interaction
F133L	with no effect

Variants of: B1
Settings: with gnaq_human GNAQ

Variant	effect of a mutation on the interaction
F133L	with no effect

Variants of: B1
Settings: with grm1_human GRM1, Q13255

Variant	effect of a mutation on the interaction
F133L	with no effect

Variants of: B1
Settings: with grm3_human GRM3, Q14832

Variant	effect of a mutation on the interaction
F133L	with no effect

Variants of: B1
Settings: with gsk3b_human GSK3B

Variant	effect of a mutation on the interaction
F133L	with no effect

Variants of: B1
Settings: with gtpb4_human GTPBP4, Q9BZE4

Variant	effect of a mutation on the interaction
F133L	with no effect

Variants of: B1
Settings: with h33_human H3-3A

Variant	effect of a mutation on the interaction
F133L	with no effect

Variants of: B1
Settings: with hdac1_human HDAC1, Q13547

Variant	effect of a mutation on the interaction
F133L	with no effect

Variants of: B1
Settings: with hdac3_human HDAC3, O15379

Variant	effect of a mutation on the interaction
F133L	with no effect

Variants of: B1
Settings: with hgf_human HGF

Variant	effect of a mutation on the interaction
F133L	with no effect

Variants of: B1
Settings: with h31_human H3C1, P68431

Variant	effect of a mutation on the interaction
F133L	with no effect

Variants of: B1
Settings: with hlab_human HLA-B

Variant	effect of a mutation on the interaction
F133L	with no effect

Variants of: B1
Settings: with hnf1a_human HNF1A

Variant	effect of a mutation on the interaction
F133L	with no effect

Variants of: B1
Settings: with igf1r_human IGF1R

Variant	effect of a mutation on the interaction
F133L	with no effect

Variants of: B1
Settings: with il7ra_human IL7R

Variant	effect of a mutation on the interaction
F133L	with no effect

Variants of: B1
Settings: with int12_human INTS12, Q96CB8

Variant	effect of a mutation on the interaction
F133L	with no effect

Variants of: B1
Settings: with ist1_human IST1, P53990

Variant	effect of a mutation on the interaction
F133L	with no effect

Variants of: B1
Settings: with jak3_human JAK3, P52333

Variant	effect of a mutation on the interaction
F133L	with no effect

Variants of: B1
Settings: with kat2a_human KAT2A

Variant	effect of a mutation on the interaction
F133L	with no effect

Variants of: B1
Settings: with kdm5a_human KDM5A

Variant	effect of a mutation on the interaction
F133L	with no effect

Variants of: B1
Settings: with kdm5c_human KDM5C

Variant	effect of a mutation on the interaction
F133L	with no effect

Variants of: B1
Settings: with kdm6a_human KDM6A

Variant	effect of a mutation on the interaction
F133L	with no effect

Variants of: B1
Settings: with vgfr2_human KDR

Variant	effect of a mutation on the interaction
F133L	with no effect

Variants of: B1
Settings: with lims1_human LIMS1, P48059

Variant	effect of a mutation on the interaction
F133L	with no effect
